Test results: patent US4959351A, “Crystal suspensions of insulin derivatives, processes for their preparation and their use” (Hoescht Aktiengesellschaft, priority 1983, dated 1990)

Experiment: Specific biological activity of the insulin substance used (I.U./mg)
Settings: as stated in the composition

Row | Substance | specific activity [I.U./mg]
1 | human insulin--Arg^B31 --OH [Human insulin-Arg^B31 -OH] | 27.5
2 | human insulin-B30-choline ester [human insulin-(B30)-choline ester] | 28.0
3 | human insulin--Arg^B31 --Arg^B32 --OH | 27.0
4 | Porcine insulin--Arg^B31 --Arg^B32 --OH [Insulin-Arg^B31 -Arg^B32 -OH from pigs] | 27.0
5 | human insulin--Arg^B31 -Lys--^B32 --OCH3 [Human insulin-Arg^B31 -Lys^B31 -OCH3] | 27.0
